Reference: US11633477B2, “Treatment of cornea using laminin” (KYOTO PREFECTURAL PUBLIC UNIVERSITY CORPORATION, priority 2014, dated 2023)
Counter-ions that a name gives are not always drawn.

B1: laminin 511-E8 fragment: E8 fragment of human laminin α5β1γ1 (Nippi. Inc., 382-02413) (protein)
chain 1: AAEDAAGQALQQADHTWATVVRQGLVDRAQQLLANSTALEEAMLQEQQRLGLVWAALQGARTQLRDVRAKKDQLEAHIQAAQAMLAMDTDETSKKIAHAKAVAAEAQDTATRVQSQLQAMQENVERWQGQYEGLRGQDLGQAVLDAGHSVSTLEKTLPQLLAKLSILENRGVHNASLALSASIGRVRELIAQARGAASKVKVPMKFNGRSGVQLRTPRDLADLAAYTALKFYLQGPEPEPGQGTEDRFVMYMGSRQATGDYMGVSLRDKKVHWVYQLGEAGPAVLSIDEDIGEQFAAVSLDRTLQFGHMSVTVERQMIQETKGDTVAPGAEGLLNLRPDDFVFYVGGYPSTFTPPPLLRFPGYRGCIEMDTLNEEVVSLYNFERTFQLDTAVDRPCARSKSTGDPWLTDGSYLDGTGFARISFDSQISTTKRFEQELRLVSYSGVLFFLKQQSQFLCLAVQEGSLVLLYDFGAGLKKAVPLQPPPPLTSASKAIQVFLLGGSRKRVLVRVERATVYSVEQDNDLELADAYYLGGVPPDQLPPSLRRLFPTGGSVRGCVKGIKALGKYVDLKRLNTTGVSAGCTADLLVGRAMTFHGHGFLRLALSNVAPLTGNVYSGFGFHSAQDSALLYYRASPDGLCQVSLQQGRVSLQLLRTEVKTQAGFADGAPHYVAFYSNATGVWLYVDDQLQQMKPHRGPPPELQPQPEGPPRLLLGGLPESGTIYNFSGCISNVFVQRLLGPQRVFDLQQNLGSVNVSTGCAPALQAQTPGLGPRGLQATARKASRRSRQPARHPA
chain 2: LQHSAADIARAEMLLEEAKRASKSATDVKVTADMVKEALEEAEKAQVAAEKAIKQADEDIQGTQNLLTSIESETAASEETLFNASQRISELERNVEELKRKAAQNSGEAEYIEKVVYTVKQSAEDVKKTLDGELDEKYKKVENLIAKKTEESADARRKAEMLQNEAKTLLAQANSKLQLLKDLERKYEDNQRYLEDKAQELARLEGEVRSLLKDISQKVAVYSTCL
chain 3: EANDILNNLKDFDRRVNDNKTAAEEALRKIPAINQTITEANEKTREAQQALGSAAADATEAKNKAHEAERIASAVQKNATSTKAEAERTFAEVTDLDNEVNNMLKQLQEAEKELKRKQDDADQDMMMAGMASQAAQEAEINARKAKNSVTSLLSIINDLLEQLGQLDTVDLNKLNEIEGTLNKAKDEMKVSDLDRKVSDLENEAKKQEAAIMDYNRDIEEIMKDIRNLEDIRKTLPSGCFNTPSIEKP

Key:
[1] = test system: rabbit bullous keratopathy model; test: Adhesion of injected cells to substrate after 24 hours in rabbit bullous keratopathy model, laminin with ROCK inhibitor; assay type: in vivo; conditions: average; 24 hours after injection of cultured RCEC into anterior chamber; Y-27632 100 μM in both groups, with or without laminin 511-E8 fragments 2.1 nM
Description: A rabbit corneal endothelium was mechanically detached to make a bullous keratopathy model. Adhesion of injected cells to a substrate after 24 hours was compared between individuals injected with cultured rabbit corneal endothelial cells together with a ROCK inhibitor Y-27632 (+) (100 μM) into the anterior chamber and individuals injected with cells together with laminin 511-E8 fragments (2.1 nM) and Y-27632 (+) (100 μM). The rabbit was euthanized after 24 hours. Corneal tissue was extracted and subjected to phalloidin staining to evaluate the morphology and cell count of adhered cells.

[2] = test system: rabbit bullous keratopathy model; test: Cultured corneal endothelium transplantation in rabbit bullous keratopathy model with or without Descemet's membrane detachment, laminin with ROCK inhibitor (4 groups); assay type: in vivo; conditions: 14 days after transplantation, laminin 511-E8 fragment (2.1 nM) added group, with Y-27632 100 μM
Description: Tests were conducted with 4 groups of 4 rabbits, i.e., group injected with cultured corneal endothelial cells together with Y-27632 (+) (100 μM) after detaching corneal endothelial cells without detaching the Descemet's membrane, group injected with cells together with laminin 511-E8 fragments (2.1 nM) and Y-27632 (+) (100 μM) after detaching corneal endothelial cells without detaching the Descemet's membrane, group in which a bullous keratopathy model with detached Descemet's membrane was injected with cells together with Y-27632 (100 μM), and group in which a bullous keratopathy model with detached Descemet's membrane was injected with cells together with laminin 511-E8 fragments (2.1 nM) and Y-27632 (+) (100 μM).
The corneal thickness was measured with an ultrasound pachymeter (SP-2000; Tomey, Nagoya, Japan). When unmeasurable, 1200 μm, which is the measurable upper limit value, was used. Further, the ocular pressure was measured with a Tonovet (M. E. Technica, Tokyo).
The histological examination shown in FIG. 8 was conducted in the same manner as in Example 1.

[3] = test system: monkey bullous keratopathy model; test: Cultured corneal endothelium transplantation in monkey bullous keratopathy model with laminin 511-E8 fragments; assay type: in vivo; conditions: cynomolgus monkey
Description: A cynomolgus monkey corneal endothelium was mechanically detached using a 20 gauge silicone needle (Soft Tapered Needle; Inami & Co., Ltd., Tokyo, Japan) to make a bullous keratopathy model. In FIG. 9, […] cultured monkey corneal endothelial cells were injected with DMEM containing laminin 511-E8 fragments adjusted to a concentration of 2.1 nM into the anterior chamber of the bullous keratopathy model, which was maintained in a face-down posture for three hours. In FIG. 10, the Descemet's membrane was detached in a produced bullous keratopathy model and, similarly, 5.0×10^5 cultured monkey corneal endothelial cells were injected with DMEM containing laminin 511-E8 fragments adjusted to a concentration of 2.1 nM into the anterior chamber of the bullous keratopathy model, which was maintained in a face-down posture for three hours.
The corneal thickness was measured with an ultrasound pachymeter (SP-2000; Tomey, Nagoya, Japan). When unmeasurable, 1200 μm, which is the measurable upper limit value, was used.

[4] = test system: p-Paxillin; test: Western blot of cell adhesion associated protein p-Paxillin in corneal endothelial cells; assay type: cell-based, human; conditions: HCEC; laminin 511-E8 fragments 2.1 nM; three hours after seeding
Description: (§1) The medium was completely removed from a culture dish culturing human corneal endothelial cells. The cells were washed twice with PBS (−). After washing, phosphate buffer was added, and the mixture was incubated for 5 minute at 37° C. (5% CO2). Subsequently, PBS (−) was removed and TrypLE™ Select (10×) (Life Technologies, A12177-01) was added. The mixture was incubated for 10 minutes at 37° C. (5% CO2). Opti-MEMI (Life Technologies, 31985-070) was then added to collect the cells. After collecting the cells, the cells were centrifuged for 3 minutes at 1200 rpm to make a cell suspension with Opti-MEM I. At this time, a laminin 511-E8 fragment free group was prepared as a control, as well as a group supplemented with laminin 511-E8 fragments so that the final concentration was 2.1 nM. At the same time, mouse IgG and integrin neutralizing antibody were added to the laminin 511-E8 fragment added group to adjust the final concentration to 2 μg/ml. After adjustment, cells were seeded on a 12-well plate at 1×10^5 cells/well and proteins were collected after three hours of seeding. Western blot was used to detect Phospho-FAK (Cell Signaling TECHNOLOGY, 8556S), FAK (Cell Signaling TECHNOLOGY, 32855), and p-Paxillin (Cell Signaling TECHNOLOGY, 2541S). The dilution factor for each antibody was 1:1000. The densitometry was quantified using Image J.

[5] = test system: monkey bullous keratopathy model; test: Laminin coating of corneal stroma in Descemet's membrane detached monkey bullous keratopathy model, then cell transplantation; assay type: in vivo; conditions: cynomolgus monkey, laminin 511-E8 21 nM in anterior chamber for one hour (coating), then MCEC with 2.1 nM
Description: A cynomolgus monkey corneal endothelium was mechanically detached using a 20 gauge silicone needle (Soft Tapered Needle; Inami & Co., Ltd., Tokyo, Japan) to make a bullous keratopathy model. The Descemet's membrane was detached in the produced bullous keratopathy model. Laminin 511-E8 fragments were injected into the anterior chamber of the bullous keratopathy model at a concentration of 21 nM and the model was left standing for one hour. The corneal stroma exposed by detaching the Descemet's membrane was coated thereby in the living body. Subsequently, 5.0×10^5 cultured monkey corneal endothelial cells were injected with DMEM containing laminin 511-E8 fragments adjusted to a concentration of 2.1 nM into the anterior chamber of the bullous keratopathy model, which was maintained in a face-down posture for three hours as in Example 3.

[6] = test system: p-FAK; test: Western blot of cell adhesion associated protein Phospho-FAK in corneal endothelial cells; assay type: cell-based, human; conditions: HCEC; laminin 511-E8 fragments 2.1 nM; three hours after seeding
Description: as §1

[7] = test system: human corneal endothelial cells; test: Adhesion of corneal endothelial cells (CellTiter-Glo, 24 hours after seeding); assay type: cell-based; conditions: laminin 511-E8 fragments 2.1 nM added on seeding; relative to fragment free cells; HCEC
Description: The medium was completely removed from a culture dish culturing human corneal endothelial cells. The cells were washed twice with PBS (−). After washing, phosphate buffer was added, and the mixture was incubated for 5 minute at 37° C. (5% CO2). Subsequently, PBS (−) was removed and TrypLE™ Select (10×) (Life Technologies, A12177-01) was added. The mixture was incubated for 10 minutes at 37° C. (5% CO2). Opti-MEMI (Life Technologies, 31985-070) was then added to collect the cells. After collecting the cells, the cells were centrifuged for 3 minutes at 1200 rpm to make a cell suspension with Opti-MEM I. At this time, a laminin 511-E8 fragment free group was prepared as a control, as well as a group supplemented with laminin 511-E8 fragments so that the final concentration was 2.1 nM. At the same time, mouse IgG and integrin neutralizing antibody were added to the laminin 511-E8 fragment added group to adjust the final concentration to 2 μg/ml. After the adjustment, cells were seeded on a 96-well plate at 5000 cells/well and were incubated for 24 hours at 37° C. (5% CO2). After 24 hours of seeding, the medium was completely removed and the cells were washed twice with PBS (−). After washing, a medium and CellTiter-Glo Luminescent Cell Viability Assay (Promega Corporation, Madison, Wis.) were added at a ratio of 1:1. […]

[8] = test system: rabbit bullous keratopathy model; test: Cultured corneal endothelium transplantation in rabbit bullous keratopathy model using laminin 511-E8 fragment; assay type: in vivo
Description: A rabbit corneal endothelium was mechanically detached using a 20 gauge silicone needle (Soft Tapered Needle; Inami & Co., Ltd., Tokyo, Japan) to make a bullous keratopathy model. The control group is a produced model that was not injected with cells. The RCEC group was injected with cultured rabbit corneal endothelial cells in the anterior chamber of the produced model and was maintained in a face-down posture for three hours. Further, the RCEC+E8 group was injected with cultured rabbit corneal endothelial cells, together with DMEM containing laminin 511-E8 fragments adjusted to a concentration of 2.1 nM, into the anterior chamber of the produced model and was maintained in a face-down posture for three hours.
The corneal thickness of an individual produced in FIG. 1 was measured sequentially with an ultrasound pachymeter (SP-2000; Tomey, Nagoya, Japan). When unmeasurable, 1200 μm, which is the measurable upper limit value, was used.
The histological examination in FIG. 3 was conducted as follows. The examination was checking normal functioning with immunostaining using Na^+/K^+-ATPase and ZO-1. This is for examining the functions of corneal endothelial cells, pumping function and barrier function. Na^+/K^+-ATPase and ZO-1 indicate normalcy of corneal endothelial cell functions, pumping function and barrier function, respectively. The approach is as follows.
After cells were immobilized, ZO-1 and Na^+/K^+-ATPase were used as function associated markers and immunostaining was applied for observation with a fluorescence microscope. For tissue staining inspection, cornea tissue extracted from a rabbit was immobilized with 4% formaldehyde for 10 minutes at room temperature (RT) and was incubated for 30 minutes with 1% bovine serum albumin (BSA). To find the phenotype of regenerated corneal endothelial tissue, immunohistochemical analysis was performed on an adhesion binding associated protein ZO-1 and pumping function associated protein Na^+/K^+-ATPase. ZO-1 and Na^+/K^+-ATPase were used as markers associated with cell functions. ZO-1 and Na^+/K^+-ATPase were stained using 1:200 dilution of ZO-1 polyclonal antibodies (Zymed Laboratories, Inc., South San Francisco, Calif.) and Na^+/K^+-ATPase monoclonal antibodies (Upstate Biotec, Inc., Lake Placid, N.Y.). 1:2000 dilution of Alexa Fluor®488 label (Life Technologies Corp., Carlsbad, Calif.) was used as the secondary antibody. The nucleus of cells was then stained with DAPI (Vector Laboratories, Inc., Burlingame, Calif.). The cell morphology was further stained with 1:400 dilution of Alexa Fluor® 488-conjugated phalloidin (Life Technologies Corp., Carlsbad, Calif.). The slide was then observed under a fluorescence microscope (TCS SP2 AOBS; Leica Microsystems, Welzlar, Germany).

[9] = rabbit cornea after transplantation of RCEC with laminin 511-E8 fragments 2.1 nM

Row | Molecule | adhering cell density [1] [cells/mm^2] | cell morphology by phalloidin staining [2] | cornea appearance (anterior ocular segment pictures) ([3]; Descemet's membrane detached, 5.0x10^5 MCEC with laminin 511-E8 2.1 nM, no coating) | corneal thickness becoming thin ([3]; Descemet's membrane detachment group) | healing of bullous keratopathy (anterior ocular segment pictures) ([3]; no Descemet's membrane detachment, 5.0x10^5 MCEC with laminin 511-E8 2.1 nM, up to Day 14) | corneal thickness becoming thin ([3]; without Descemet's membrane detachment) | p-Paxillin [4] | cornea appearance (anterior ocular segment pictures) [5] | p-FAK [6] | number of adhering cells after 24 hours [7] [%] | corneal thickness ([8]; average on day 7, RCEC injected with laminin 511-E8 fragments 2.1 nM, ultrasound pachymeter) [μm] | N-cadherin (adherence junction) immunostaining [8, 9] | Na+/K+-ATPase (pumping function) immunostaining [8, 9] | ZO-1 (tight junction, barrier function) immunostaining [8, 9] | cell morphology by phalloidin staining [8, 9] | cornea appearance in pictures of anterior ocular segment ([8]; rabbit, cultured RCEC injected into anterior chamber with or without laminin 511-E8 fragments 2.1 nM, after one and two weeks)
1 | C[C@@H](N)[C@H]1CC[C@H](C(=O)Nc2ccncc2)CC1 [Y-27632, (R)-(+)-trans-(4-pyridyl)-4-(1-aminoethyl)-cyclohexanecarboxamide dihydrochloride monohydrate, reference compound] | 717.3 |  |  |  |  |  |  |  |  |  |  |  |  |  |  | 
2 | B1 | 1662.8 | normal monolayer polygonal morphology | not transparent or healed | did not become thin | heal bullous keratopathy | it did | promoted | transparent and healed | promoted | 137.3±2.8 | 637 | normally expressed | expressed | expressed | monolayer polygonal morphology | transparent and healed
